B1: Centriolar coiled-coil protein of 110 kDa (Homo sapiens), O43303-2 (parent)
chain: MEEYEKFCEKSLARIQEASLSTESFLPAQSESISLIRFHGVAILSPLLNIEKRKEMQQEKQKALDVEARKQVNRKKALLTRVQEILDNVQVRKAPNASDFDQWEMETVYSNSEVRNLNVPATFPNSFPSHTEHSTAAKLDKIAGILPLDNEDQCKTDGIDLARDSEGFNSPKQCDSSNISHVENEAFPKTSSATPQETLISDGPFSVNEQQDLPLLAEVIPDPYVMSLQNLMKKSKEYIEREQSRRSLRGSINRIVNESHLDKEHDAVEVADCVKEKGQLTGKHCVSVIPDKPSLNKSNVLLQGASTQASSMSMPVLASFSKVDIPIRTGHPTVLESNSDFKVIPTFVTENNVIKSLTGSYAKLPSPEPSMSPKMHRRRSRTSSACHILINNPINACELSPKGKEQAMDLIIQDTDENTNVPEIMPKLPTDLAGVCSSKVYVGKNTSEVKEDVVLGKSNQVCQSSGNHLENKVTHGLVTVEGQLTSDERGAHIMNSTCAAMPKLHEPYASSQCIASPNFGTVSGLKPASMLEKNCSLQTELNKSYDVKNPSPLLMQNQNTRQQMDTPMVSCGNEQFLDNSFEKVKRRLDLDIDGLQKENCPYVITSGITEQERQHLPEKRYPKGSGFVNKNKMLGTSSKESEELLKSKMLAFEEMRKRLEEQHAQQLSLLIAEQEREQERLQKEIEEQEKMLKEKKAMTAEASELDINNAVELEWRKISDSSLLETMLSQADSLHTSNSNSSGFTNSAMQYSFVSANEAPFYLWGSSTSGLTKLSVTRPFGRAKTRWSQVFSLEIQAKFNKITAVAKGFLTRRLMQTDKLKQLRQTVKDTMEFIRSFQSEAPLKRGIVSAQDASLQERVLAQLRAALYGIHDIFFVMDAAERMSILHHDREVRKEKMLRQMDKMKSPRVALSAATQKSLDRKKYMKAAEMGMPNKKFLVKQNPSETRVLQPNQGQNAPVHRLLSRQGSICRKNPKKAAKCCDNLRRQHSLG
partner: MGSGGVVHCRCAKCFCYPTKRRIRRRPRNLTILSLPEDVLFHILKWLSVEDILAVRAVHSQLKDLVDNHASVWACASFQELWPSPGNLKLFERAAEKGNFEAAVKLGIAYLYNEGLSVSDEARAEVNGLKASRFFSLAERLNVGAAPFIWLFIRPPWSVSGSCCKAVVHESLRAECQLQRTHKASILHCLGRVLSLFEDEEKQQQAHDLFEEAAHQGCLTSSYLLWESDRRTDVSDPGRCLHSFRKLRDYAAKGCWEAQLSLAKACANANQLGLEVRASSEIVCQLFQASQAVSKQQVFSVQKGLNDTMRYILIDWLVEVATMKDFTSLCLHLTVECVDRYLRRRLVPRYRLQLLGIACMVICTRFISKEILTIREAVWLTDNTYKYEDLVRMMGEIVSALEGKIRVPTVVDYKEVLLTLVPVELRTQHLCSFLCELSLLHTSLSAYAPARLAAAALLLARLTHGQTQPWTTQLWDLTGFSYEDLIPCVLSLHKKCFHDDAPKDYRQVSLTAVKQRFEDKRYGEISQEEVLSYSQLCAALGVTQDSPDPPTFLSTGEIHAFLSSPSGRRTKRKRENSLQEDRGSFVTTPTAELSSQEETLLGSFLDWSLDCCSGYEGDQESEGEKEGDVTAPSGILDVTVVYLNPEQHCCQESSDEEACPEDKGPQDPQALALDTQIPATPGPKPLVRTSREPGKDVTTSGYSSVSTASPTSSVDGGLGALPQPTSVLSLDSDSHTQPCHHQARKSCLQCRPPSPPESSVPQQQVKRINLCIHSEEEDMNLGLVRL
B2: Cyclin-F (Homo sapiens), P41002 (parent)
chain: B1 partner

Variants of: B1
Details: with ccnf_human CCNF

Row | Variant | effect of a mutation on the interaction
1 | L588A;L590A | disrupting interaction

Variants of: B2
Details: with cul1_human CUL1, Q13616
cul1_human CUL1, Q13616, sequence (Q13616 whole entry): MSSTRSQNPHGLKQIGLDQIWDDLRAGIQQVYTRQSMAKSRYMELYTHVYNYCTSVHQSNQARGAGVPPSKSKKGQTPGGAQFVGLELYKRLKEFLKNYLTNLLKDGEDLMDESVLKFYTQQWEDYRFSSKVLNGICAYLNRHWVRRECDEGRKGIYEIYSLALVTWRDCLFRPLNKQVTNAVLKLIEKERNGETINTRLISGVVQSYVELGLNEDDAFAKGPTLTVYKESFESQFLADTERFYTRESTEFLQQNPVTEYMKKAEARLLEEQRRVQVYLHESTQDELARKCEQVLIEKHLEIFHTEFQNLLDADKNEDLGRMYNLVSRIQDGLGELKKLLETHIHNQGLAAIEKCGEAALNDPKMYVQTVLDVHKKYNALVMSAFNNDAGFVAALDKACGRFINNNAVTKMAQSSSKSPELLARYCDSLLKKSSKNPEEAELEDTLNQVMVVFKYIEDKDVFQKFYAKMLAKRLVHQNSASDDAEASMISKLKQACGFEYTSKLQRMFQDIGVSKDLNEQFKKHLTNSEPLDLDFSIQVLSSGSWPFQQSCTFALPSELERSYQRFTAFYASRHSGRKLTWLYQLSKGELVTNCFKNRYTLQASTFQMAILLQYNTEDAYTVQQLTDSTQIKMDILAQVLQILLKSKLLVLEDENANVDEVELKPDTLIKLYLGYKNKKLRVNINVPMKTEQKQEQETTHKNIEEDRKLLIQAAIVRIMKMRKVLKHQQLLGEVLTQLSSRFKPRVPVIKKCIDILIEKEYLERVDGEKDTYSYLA

Row | Variant | effect of a mutation on the interaction
2 | L35A;P36A | disrupting interaction

Variants of: B2
Details: with cp110_human CCP110, O43303

Row | Variant | effect of a mutation on the interaction
3 | M309A;L313A | disrupting interaction

From IntAct's records for PubMed 20596027
